Assay results as given in patent publication US7495068B2, “Antiangiogenic peptides, polypeptides encoding same and methods for inhibiting angiogenesis” (Abbott Laboratories, priority 1996, dated 2009).

Assays:
BCE Cells [1] = details: rows marked *: data taken from Marti et al. 1994; cited from earlier work
BCE Cells [2] = experiment: Endothelial proliferation assay (bFGF-stimulated); assay type: cell-based, bovine
Protocol: The in vitro proliferation of endothelial cells was determined as described by Lingen, et al., in Laboratory Investigation, 74: 476-483 (1996), which is hereby incorporated herein by reference, using the Cell Titer 96 Aqueous Non-Radioactive Cell Proliferation Assay kit (Promega® Corporation, Madison, Wis.). Bovine capillary (adrenal) endothelial cells were plated at a density of 1000 cells per well in a 96-well plate in Dulbecco's Modified Eagle Medium (DMEM) containing 10% donor calf serum and 1% BSA (bovine serum albumin, GIBCO® BRL, Gaithersburg, Md.). After 8 hours, the cells were starved overnight in DMEM containing 0.1% BSA then re-fed with media containing specified concentrations of inhibitor and 5 ng/mL bFGF (basic fibroblast growth factor). The results of the assay were corrected both for unstimulated cells (i.e. no bFGF added) as the baseline and for cells stimulated with bFGF alone (i.e. no inhibitor added) as the maximal proliferation. When multiple experiments were combined, the results were represented as the percent change in cell number as compared to bFGF alone.
The effect of kringle 5 peptide fragments on endothelial cell proliferation was determined in vitro using the above described endothelial cell proliferation assay. […]

Row | Molecule | Antiproliferative Activity of BCE Cells (ED50) (BCE Cells [1]) | fold increase in activity at inhibiting BCE cell proliferation compared to kringle 1-4 peptide fragments (BCE Cells [2]; vs kringle 1-4 peptide fragments) [fold] | fold increase in activity at inhibiting BCE cell proliferation compared to kringle 5 fragment 443-546 of SEQ ID NO:1 (BCE Cells [2]; vs kringle 5 (443-546)) [fold]
1 | kringle 2 (Glu^161-Thr^245): kringle 2 fragment of plasminogen, SEQ ID NO:1 (protein, listed as Homo sapiens) ECEEECMHCSGENYDGKISKTMSGLECQAWDSQSPHAHGYIPSKFPNKNLKKNYCRNPDRELRPWCFTTDPNKRWELCDIPRCTT | no activity |  | 
2 | kringle 5 (Val^443-Ala^543): kringle 5 peptide fragment, amino acid positions 443-543 of human plasminogen (SEQ ID NO:1) (protein, listed as Homo sapiens) VAPPPVVLLPDVETPSEEDCMFGNGKGYRGKRATTVTGTPCQDWAAQEPHRHSIFTPETNPRAGLEKNYCRNPDGDVGGPWCYTTNPRKLYDYCDVPQCAA |  | ~800 | ~300
3 | kringle 4 (Val^354-Val^443): kringle 4 fragment of plasminogen, SEQ ID NO:1 (protein, listed as Homo sapiens) VVQDCYHGDGQSYRGTSSTTTTGKKCQSWSSMTPHRHQKTPENYPNAGLTMNYCRNPDADKGPWCFTTDPSVRWEYCNLKKCSGTEASVV | no activity |  | 
